According to paper PMC11373624, “Development and preclinical characterization of a novel radiotheranostic EphA2-targeting bicyclic peptide” (Theranostics, 2024):
Numbered stars: 1 amine (or outer) side, 2 acyl side, 3 side chain; on linkers, the order of the positions; unused ones are H or OH. Bridge positions count the residues as written; N and C are the ends. Square brackets hold non-standard residues; d marks the D form. Peptide text beside a SMILES is read from it. * marks the point of attachment. DOTA = O=C(O)CN1CCN(CC(=O)O)CCN(CC(=O)*)CCN(CC(=O)O)CC1; TATA = O=C(CC[*:1])N1CN(C(=O)CC[*:2])CN(C(=O)CC[*:3])C1; Hyp = O=C(O)[C@@H]1C[C@@H](O)CN1; hArg = N=C(N)NCCCC[C@H](N)C(=O)O; Cba = N[C@@H](CC1CCC1)C(=O)O; βAla = NCCC(=O)O; Sar = CNCC(=O)O

Assays:
HT1080 cells = assay: Cell surface binding and internalization assay; type: cell-based, human
Protocol: To assess internalization and specificity, HT1080 cells (10^5 cells/well) were seeded in a 24-well plate coated with poly-L-lysine one day before the experiment. […] To determine specific uptake, 'cold' (non-radiolabeled) BCY18469 was added to half of the wells at an excess concentration of 10 µM/well or, alternatively, the cells were kept at 4 °C during the experiment. Following the incubation, the cells were thoroughly rinsed with cold PBS (3 x 1 mL). Subsequently, surface bound radioactivity was removed by washing with 50 mM glycine (pH 2.8, 2 x 500 µL). Finally, the internalized fraction was determined by lysing the cells with 0.5 M NaOH (500 µL). All fractions were collected and measured using a gamma counter (Perkin Elmer Wizard2, Germany). All counts were standardized to the initial activity, and specific surface binding as well as specific internalization were calculated by subtracting the non-specific binding values obtained from the wells treated with an excess of 'cold' compound. Results were calculated and expressed as %AA/10^5 cells (% applied activity/10^5 cells).

in vivo = details: mouse; for tissue to tissue ratio at 1 h / tissue to tissue ratio at 2 h / tissue to tissue ratio at 6 h / tissue to tissue ratio at 24 h: iv, 150 pmol
Source text: (§1) For the cut and count biodistribution study of [^177Lu]Lu-BCY18469 the HT1080 xenograft model was used. […] (n = 3 mice per time point). Thereafter, mice were dissected, and organs of interest harvested, which included: blood, heart, lung, spleen, liver, kidneys, muscle (quadriceps), intestine, brain, tail, bone (femur) and grafted tumor.

HT1080 tumor xenograft = assay: in vivo; details: mouse
Source text: as §1

[1] = 4°C, block with 10 µM non-labeled compound, listed as 177Lu-BCY18469
[2] = 37°C, 45 min, 30 nM, listed as 177Lu-BCY18469
[3] = total radioactivity, Tumor-to-blood ratio
[4] = total radioactivity, Tumor-to-heart ratio
[5] = total radioactivity, Tumor-to-intestine ratio
[6] = total radioactivity, Tumor-to-kidneys ratio
[7] = total radioactivity, Tumor-to-liver ratio
[8] = total radioactivity, Tumor-to-lung ratio
[9] = total radioactivity, Tumor-to-muscle ratio
[10] = total radioactivity, Tumor-to-spleen ratio
[11] = total radioactivity, Tumor uptake

CC(C)C[C@@H]1NC(=O)[C@@H]2CSCCC(=O)N3CN(CN(C3)C(=O)CCSC[C@H](NC(=O)[C@H](CC(=O)O)NC(=O)[C@H](CCCCNC(=N)N)NC(=O)[C@H](C)NC(=O)CN(C)C(=O)CN(C)C(=O)CN(C)C(=O)CN(C)C(=O)CN(C)C(=O)CN(C)C(=O)CN(C)C(=O)CN(C)C(=O)CN(C)C(=O)CN(C)C(=O)CCNC(=O)CN3CCN(CC(=O)O)CCN(CC(=O)O)CCN(CC(=O)O)CC3)C(=O)N3C[C@H](O)C[C@H]3C(=O)N[C@@H](CC3CCC3)C(=O)N[C@@H](C(C)C)C(=O)N[C@@H](CC(N)=O)C(=O)N3CCC[C@H]3C(=O)N[C@@H](CC(C)C)C(=O)N2)C(=O)CCSC[C@@H](C(N)=O)NC(=O)[C@H](CCCCNC(=N)N)NC(=O)[C@H](Cc2c[nH]c3ccccc23)NC(=O)[C@@H](CC(=O)O)NC(=O)[C@@H]2CCCN2C(=O)[C@H](Cc2c[nH]cn2)NC1=O [[177Lu]Lu-BCY18469, metal not drawn] ({DOTA-βAla}-[Sar][Sar][Sar][Sar][Sar][Sar][Sar][Sar][Sar][Sar]A[hArg]DC[Hyp][Cba]VNPLCLHP[dD]W[hArg]C-NH2; linker 14-21-28 via TATA)
Cell Surface B 4°C (HT1080 cells; [1]): 0.05 ± 0.01 %AA/10^5 cells
Internalization B 4°C (HT1080 cells; [1]): 0.01 ± 0.01 %AA/10^5 cells
Cell Surface 4°C (HT1080 cells; 4°C, listed as 177Lu-BCY18469): 0.51 ± 0.01 %AA/10^5 cells
Internalization 4°C (HT1080 cells; 4°C, listed as 177Lu-BCY18469): 0.06 ± 0.01 %AA/10^5 cells
Cell Surface (HT1080 cells; [2]): 0.62 ± 0.03 %AA/10^5 cells
Internalization (HT1080 cells; [2]): 0.13 ± 0.01 %AA/10^5 cells
Cell Surface B (HT1080 cells; 37°C, block with 10 µM non-labeled compound): 0.02 ± 0.01 %AA/10^5 cells
Internalization B (HT1080 cells; 37°C, block with 10 µM non-labeled compound, listed as 177Lu-BCY18469): 0.01 ± 0.01 %AA/10^5 cells
tissue uptake at 1 h (in vivo; Blood uptake): 0.2 %ID/g
tissue uptake at 2 h (in vivo; Blood uptake): 0.03 %ID/g
tissue uptake at 6 h (in vivo; Blood uptake): 0.02 %ID/g
tissue uptake at 24 h (in vivo; Blood uptake): 0.01 %ID/g
tissue uptake at 1 h (in vivo; Bone uptake): 0.3 %ID/g
tissue uptake at 2 h (in vivo; Bone uptake): 0.21 %ID/g
tissue uptake at 6 h (in vivo; Bone uptake): 0.56 %ID/g
tissue uptake at 24 h (in vivo; Bone uptake): 0.44 %ID/g
tissue uptake at 2 h (in vivo; Brain uptake): 0.01 %ID/g
tissue uptake at 6 h (in vivo; Brain uptake): 0.01 %ID/g
tissue uptake at 1 h (in vivo; Heart uptake): 0.1 %ID/g
tissue uptake at 2 h (in vivo; Heart uptake): 0.03 %ID/g
tissue uptake at 6 h (in vivo; Heart uptake): 0.05 %ID/g
tissue uptake at 24 h (in vivo; Heart uptake): 0.03 %ID/g
tissue uptake at 1 h (in vivo; Intestine uptake): 0.34 %ID/g
tissue uptake at 2 h (in vivo; Intestine uptake): 0.16 %ID/g
tissue uptake at 6 h (in vivo; Intestine uptake): 0.15 %ID/g
tissue uptake at 24 h (in vivo; Intestine uptake): 0.1 %ID/g
tissue uptake at 1 h (in vivo; Kidneys uptake): 65.3 %ID/g
tissue uptake at 2 h (in vivo; Kidneys uptake): 47.2 %ID/g
tissue uptake at 6 h (in vivo; Kidneys uptake): 62.6 %ID/g
tissue uptake at 1 h (in vivo; Liver uptake): 0.25 %ID/g
tissue uptake at 2 h (in vivo; Liver uptake): 0.15 %ID/g
tissue uptake at 6 h (in vivo; Liver uptake): 0.6 %ID/g
tissue uptake at 24 h (in vivo; Liver uptake): 0.53 %ID/g
tissue uptake at 1 h (in vivo; Lung uptake): 0.7 %ID/g
tissue uptake at 2 h (in vivo; Lung uptake): 0.19 %ID/g
tissue uptake at 6 h (in vivo; Lung uptake): 0.28 %ID/g
tissue uptake at 24 h (in vivo; Lung uptake): 0.13 %ID/g
tissue uptake at 1 h (in vivo; Muscle uptake): 0.06 %ID/g
tissue uptake at 2 h (in vivo; Muscle uptake): 0.02 %ID/g
tissue uptake at 6 h (in vivo; Muscle uptake): 0.03 %ID/g
tissue uptake at 24 h (in vivo; Muscle uptake): 0.02 %ID/g
tissue uptake at 1 h (in vivo; Spleen uptake): 0.6 %ID/g
tissue uptake at 2 h (in vivo; Spleen uptake): 0.16 %ID/g
tissue uptake at 6 h (in vivo; Spleen uptake): 0.4 %ID/g
tissue uptake at 24 h (in vivo; Spleen uptake): 0.31 %ID/g
tissue uptake at 1 h (in vivo; Tail uptake): 1.8 %ID/g
tissue uptake at 2 h (in vivo; Tail uptake): 0.7 %ID/g
tissue uptake at 6 h (in vivo; Tail uptake): 0.83 %ID/g
tissue uptake at 24 h (in vivo; Tail uptake): 0.38 %ID/g
tissue uptake at 2 h (in vivo; Tumor uptake): 9.99 %ID/g
tissue to tissue ratio at 1 h (in vivo; [3]): 97.5
tissue to tissue ratio at 2 h (in vivo; [3]): 333
tissue to tissue ratio at 6 h (in vivo; [3]): 278
tissue to tissue ratio at 24 h (in vivo; [3]): 177
tissue to tissue ratio at 1 h (in vivo; [4]): 195
tissue to tissue ratio at 2 h (in vivo; [4]): 333
tissue to tissue ratio at 6 h (in vivo; [4]): 111
tissue to tissue ratio at 24 h (in vivo; [4]): 59
tissue to tissue ratio at 1 h (in vivo; [5]): 57.4
tissue to tissue ratio at 2 h (in vivo; [5]): 62.4
tissue to tissue ratio at 6 h (in vivo; [5]): 37.1
tissue to tissue ratio at 24 h (in vivo; [5]): 17.7
tissue to tissue ratio at 1 h (in vivo; [6]): 0.3
tissue to tissue ratio at 2 h (in vivo; [6]): 0.21
tissue to tissue ratio at 6 h (in vivo; [6]): 0.09
tissue to tissue ratio at 24 h (in vivo; [6]): 0.03
tissue to tissue ratio at 1 h (in vivo; [7]): 78
tissue to tissue ratio at 2 h (in vivo; [7]): 66.6
tissue to tissue ratio at 6 h (in vivo; [7]): 9.27
tissue to tissue ratio at 24 h (in vivo; [7]): 3.34
tissue to tissue ratio at 1 h (in vivo; [8]): 27.9
tissue to tissue ratio at 2 h (in vivo; [8]): 52.6
tissue to tissue ratio at 6 h (in vivo; [8]): 19.9
tissue to tissue ratio at 24 h (in vivo; [8]): 13.6
tissue to tissue ratio at 1 h (in vivo; [9]): 325
tissue to tissue ratio at 2 h (in vivo; [9]): 500
tissue to tissue ratio at 6 h (in vivo; [9]): 185
tissue to tissue ratio at 24 h (in vivo; [9]): 88.5
tissue to tissue ratio at 1 h (in vivo; [10]): 32.5
tissue to tissue ratio at 2 h (in vivo; [10]): 62.4
tissue to tissue ratio at 6 h (in vivo; [10]): 13.9
tissue to tissue ratio at 24 h (in vivo; [10]): 5.71
tissue uptake at 24 h (in vivo; total radioactivity, Kidneys uptake): 54.9 ± 17.1 %ID/g
tissue uptake (in vivo; total radioactivity, Non-target organs uptake): ≤ 1 %ID/g
tissue uptake at 1 h (in vivo; [11]): 19.5 ± 3.5 %ID/g
tissue uptake at 6 h (in vivo; [11]): 5.56 ± 1.24 %ID/g
tissue uptake at 24 h (in vivo; [11]): 1.77 ± 0.51 %ID/g
Brain uptake (HT1080 tumor xenograft; 1 h): 0 %ID/g
Brain uptake (HT1080 tumor xenograft; 24 h): 0 %ID/g
Tumor-to-muscle ratio (HT1080 tumor xenograft; iv, 150 pmol, 24 h): 88
